Measurements taken from publication PMC5165034 (2016).
Where a chain is given by its changes, count along the chain named.

B1: 2F4 HCAb (antibody, V domains shown)
VH: EVQLVESGGGLVKPGGSLRLSCAASGFAFSDYYMSWLRQAPGKGLEWVSYISSSGSNIYYADSVKGRFTISRDNAKNSLYLQMNSLRAEDTAVYYCARGAGVFDYLGQGGRGTLVTVSS
B2: 7F2 HCAb (antibody, V domains shown)
VH: EVQLVESGGGLVKPGGSLRLSCAASGFTFSADYMSWIRQAPGKGLEWVSYISSSGSSIYYADSVKGRFTISRDNAKNSLYLQMNSLRAEDTAVYYCARGWFGESHSFDYWGQGTLVTVSS
B3: 1G11 HCAb (antibody, V domains shown)
VH: EVQLVESGGGLVKPGGSLRLSCAASGFTFSDYYMSWIRQTPGKGLEWVSYISSSGSNIYYADSVKGRFTISRDNAKNSLYLQMNSLRAEDTAVYYCARGISMARDSWGQGTLVTVSS
B4: 3A8 HCAb (antibody, V domains shown)
VH: B3 VH with T40A, S56D, N57I, Y80F, A97T, I100V, M102L, A103V, S106Y, L112Q
B5: 1C12 HCAb (antibody, V domains shown)
VH: B3 VH with T40A, N57T, I100V, S101A, A103V, T114N
B6: 1F4 HCAb (antibody, V domains shown)
VH: B3 VH with T40A, N57T, I100V, S101K, M102L, A103T, R104E, S106D

These binders were tested against bromelain-released HA (BHA) of influenza X-31 (influenza A strain X-31 (H3N2)) (assay: BLI).

Row | Binder | Kd [nM]
1 | B1 | 5.6
2 | B2 | 35
3 | B3 | 2.9
4 | B4 | 3.2
5 | B5 | 1.8
6 | B6 | 6.6
